Measurements published in PMC9993454.

Biological target: CD16a on NK cells of cynomolgus monkey peripheral blood (cynomolgus monkey (endogenous on NK cells of peripheral blood)) (UniProt Q8SPW2)
Test: flow cytometry on cells; cynomolgus monkeys given HpmAb1/D1632 (0.5-20 mg/kg s.c., day 0) or IVIG (1 g/kg i.v., days 0 and 1) and anti-platelet antibody on day 1; blood NK cells (CD45+CD14-CD159a+) stained with Fc-competing anti-CD16 3G8 (unoccupied CD16a) and non-competing DJ130c (all CD16a); free ratio and receptor occupancy (RO) against baseline (day 0)

Chain of UniProt Q8SPW2 (Q8SPW2 17-254): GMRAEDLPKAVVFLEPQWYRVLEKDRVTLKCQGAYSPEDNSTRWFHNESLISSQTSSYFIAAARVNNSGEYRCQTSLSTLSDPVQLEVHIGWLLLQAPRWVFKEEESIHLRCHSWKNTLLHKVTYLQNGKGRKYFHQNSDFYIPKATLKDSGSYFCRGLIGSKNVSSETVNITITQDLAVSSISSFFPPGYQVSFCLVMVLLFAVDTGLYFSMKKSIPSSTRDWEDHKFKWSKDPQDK

- free ratio (unoccupied CD16a on NK cells, % of baseline) on day 1: 40.3%
Substance: Intravenous immunoglobulin (IVIG) (antibody)
